B1: VDR (parent)
chain: LIKFQVGLKKLNLHEEEHVLLMAI
B2: CLPTM1 (parent)
chain: MNLHVYISEHEHFTDFNATSALFW

Variants of: B1
Assay: protein stability index of a GFP-peptide fusion (GPS, HEK-293T) (PSI 1-6); higher = more stable
Settings: c terminus: a fixed tail appended
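Also: lentivirally expressed fusions sorted by FACS into six bins by GFP to DsRed ratio, PSI derived from sequencing read proportions per bin multiplied by bin number.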

Row | Variant | protein stability index
1 | M22Q | 2.36
2 | M22I | 2.91
3 | M22N | 2.99
4 | V6T | 2.73
5 | L1S | 3.27
6 | E16L | 3.15
7 | L21K | 3.43
8 | L21Q | 2.02
9 | K9D | 2.79
10 | K9N | 1.61
11 | K9S | 3.17
12 | E15K | 2.5
13 | G7A | 2.15
14 | G7P | 1.3
15 | G7Q | 3.23
16 | L8T | 2.62
17 | L8I | 3.67
18 | L8Q | 1.56

Row | Variant | protein stability index
19 | F4R | 2.72
20 | I24E | 2.55
21 | I24N | 2.74
22 | A23H | 2.49
23 | A23V | 1.85
24 | A23R | 2.37
25 | E17R | 3.74
26 | K10C | 4.27
27 | K10E | 2.11
28 | I2D | 2.05
29 | I2F | 2.27
30 | I2H | 1.87
31 | I2M | 3.15
32 | H18N | 3.21
33 | L11K | 2.98
34 | L11S | 2.29
35 | Q5P | 2.97
36 | Q5F | 2.56

Variants of: B2
Assay: as above
Settings: c terminus: a fixed tail appended

Row | Variant | protein stability index
37 | E11V | 4.02
38 | E11Q | 2.87
39 | E11Y | 3.67
40 | E11T | 2.47
41 | E11A | 1.98
42 | E11D | 2.39
43 | E11I | 2.42
44 | E11M | 3.46
45 | E11F | 3.56
46 | E11C | 3.77
47 | I7N | 3.55
48 | I7R | 3.14
49 | I7A | 2.6
50 | I7L | 2.45
51 | I7Y | 4.01
52 | I7D | 2.53
53 | I7M | 3.09
54 | I7S | 2.45
55 | I7H | 1.79
56 | I7G | 2.92
57 | I7C | 2
58 | I7E | 2.48

Row | Variant | protein stability index
59 | I7W | 2.65
60 | I7K | 2.96
61 | I7V | 3.33
62 | I7F | 2.58
63 | Y6C | 2.52
64 | Y6I | 2.61
65 | Y6D | 2.1
66 | Y6F | 2.84
67 | Y6P | 1.49
68 | Y6T | 4.82
69 | Y6L | 3.45
70 | Y6R | 3.35
71 | Y6E | 2.93
72 | Y6N | 2.22
73 | Y6A | 2.15
74 | Y6H | 2.59
75 | Y6S | 3.07
76 | Y6K | 3.26
77 | Y6Q | 2.4
78 | T14A | 3.39
79 | T14V | 1.81
80 | T14P | 4.65

Row | Variant | protein stability index
81 | T14K | 3.17
82 | T14Q | 2.62
83 | T14M | 4.02
84 | T14H | 4.34
85 | T14C | 3.04
86 | T14I | 2.23
87 | T14S | 3.26
88 | T14Y | 1.62
89 | T14E | 3.86
90 | F23E | 1.81
91 | F23Q | 2.56
92 | F23R | 2.46
93 | F23H | 3.78
94 | F23N | 2.46
95 | F23D | 3.62
96 | F23I | 3.19
97 | F23L | 5.95
98 | F23C | 2.69
99 | F23Y | 5.1
100 | F23V | 2.13
101 | F23P | 2.49
102 | F16R | 1.62

Row | Variant | protein stability index
103 | F16G | 2.76
104 | F16H | 3.52
105 | F16T | 1.87
106 | F16I | 1.71
107 | F16W | 2.71
108 | F16K | 2.96
109 | F16D | 1.79
110 | F16N | 2.56
111 | F16Y | 2.26
112 | F16S | 2.19
113 | F16E | 2.87
114 | E9Y | 2.5
115 | E9L | 1.96
116 | E9A | 2.82
117 | E9T | 2.48
118 | E9Q | 2.96
119 | E9K | 2.52
120 | E9G | 4.46
121 | E9F | 2.28
122 | E9V | 3.22
123 | E9H | 4.25
124 | E9P | 1.5

Row | Variant | protein stability index
125 | E9N | 3.59
126 | E9M | 3.76
127 | F13T | 1.95
128 | F13S | 2.4
129 | F13W | 4.9
130 | F13V | 2.63
131 | F13L | 4.51
132 | F13N | 3.8
133 | F13E | 3.52
134 | F13K | 4.65
135 | F13R | 2.5
136 | F13P | 2.63
137 | F13A | 3.39
138 | F13H | 2.67
139 | F13G | 2.42
140 | F13Q | 2.2
141 | F13C | 2.51
142 | N17H | 2.13
143 | N17K | 3.02
144 | N17S | 2.44
145 | N17I | 3.01
146 | N17C | 2.72

Row | Variant | protein stability index
147 | N17F | 2.72
148 | N17T | 3.19
149 | N17P | 3.96
150 | N17R | 2.01
151 | N17E | 3.66
152 | N17A | 2.59
153 | N17G | 2.38
154 | N17V | 2.75
155 | L22Q | 3.16
156 | L22T | 3.54
157 | L22A | 4.09
158 | L22H | 2.6
159 | L22S | 1.97
160 | L22I | 1.59
161 | L22Y | 2.2
162 | L22G | 4
163 | L22R | 1.1
164 | L22C | 4.78
165 | S8W | 3.59
166 | S8D | 3.18
167 | S8Y | 2.98

From the supplement of paper PMC10567573
